Residue numbers refer to the chain shown, from its start.
B1: 35 (protein)
chain: STAIAQEGAAPAAILHPEKWPRPATQRLIDPAVEKRVDALLKQLSVEEKVGQVIQGDIGTITPEDLRKYPLGSILAGGNSGPNGDDRAPPKEWLDLADAFYRVSLEKRPGHTPIPVLFGIDAVHGHGNIGSATIFPHNIALGATHDPELLRRIGEVTAVEMAATGIDWTFAPALSVVRDDRWGRTYEGFSEDPEIVAAYSAKIVEGVQGKFGSKDFMAPGRIVASAKHFLADGGTDQGRDQGDARISEDELIRIHNAGYPPAIDAGVLTVMASFSSWQGIKHHGHKQLLTDVLKGQMGFNGFIVGDWNAHDQVPGCTKFNCPTSLIAGLDMYMAADSWKQLYENTLAQVKDGTIPMARLDDAVRRILRVKVLAGLFEKPAPKDRPGLPGLETLGSPEHRAVGREAVRKSLVLLKNDKGTLPLSPKARVLVAGDGADNIGKQSGGWTISWQGTGNRNDEFPGATSILGGIRDAVADAGGSVEFDVAGQYKTKPDVAIVVFGEEPYAEFQGDVETLEYQPDQKQDLALLKKLKDQGIPVVAVFLSGRPMWVNPELNASDAFVAAWLPGTEGGGVADVLFTDKAGKVQHDFAGKLSYSWPRTAAQTTVNRGDADYNPLFAYGYGLTYKDKSKVGTLPEESGVPAEARQNAGIYFRAGALRLPGRFL
B2: 38 (protein)
chain: B1 chain with A173S, K202A
B3: 53 (protein)
chain: B1 chain with I153T, K202A
B4: 40 (protein)
chain: B1 chain with A173C, K202A
B5: 51 (protein)
chain: B1 chain with K202A, D519G
B6: 61 (protein)
chain: B1 chain with E155A, K202A
B7: 59 (protein)
chain: B1 chain with E155Q, K202A
B8: 47 (protein)
chain: B1 chain with K202A, D475K
B9: 62 (protein)
chain: B1 chain with E155W, K202A
B10: 44 (protein)
chain: B1 chain with K202A, F482Y
B11: 46 (protein)
chain: B1 chain with K202A, L387R
B12: 48 (protein)
chain: B1 chain with N79D, K202A
B13: 58 (protein)
chain: B1 chain with E155M, K202A
B14: 52 (protein)
chain: B1 chain with L141I, K202A
B15: 43 (protein)
chain: B1 chain with K202A, G467Q
B16: 39 (protein)
chain: B1 chain with A143Q, K202A
B17: 42 (protein)
chain: B1 chain with K202A, I222A
B18: 49 (protein)
chain: B1 chain with K202A, Q487D
B19: 54 (protein)
chain: B1 chain with K202A, L663Q
B20: 50 (protein)
chain: B1 chain with K202A, K629C
B21: 60 (protein)
chain: B1 chain with E155K, K202A
B22: 45 (protein)
chain: B1 chain with K202A, Q487N
B23: 56 (protein)
chain: B1 chain with K202A, S225F
B24: 57 (protein)
chain: B1 chain with K202A, I222C
B25: 36 (protein)
chain: B1 chain with A143M, K202A
B26: 55 (protein)
chain: B1 chain with K202A, S225T
B27: 37 (protein)
chain: B1 chain with I195L, K202A
B28: 41 (protein)
chain: B1 chain with K202A, S225C

Experiment: High throughput cellobiose assay: fold improvement in cellobiase activity of CelA variants over a control enzyme (Tables 2A-2D, 3, 5, 6, 7)
Format: biochemical
Details: 3.3 g/l cellobiose, 50° C. and pH 6.5; compared to native CelA (SEQ ID NO: 4)
Protocol: β-glucosidase activity was also determined using a cellobiose assay, which used cellobiose as substrate. In a total volume of 100 μL, 25 μL clear media supernatant containing CelA enzyme was added to 10 g/L cellobiose (Fluka Cat. No. 22150, Sigma-Aldrich, Inc., St. Louis, Mo.) in 100 mM sodium phosphate buffer (pH 6-7) or sodium acetate buffer (pH 5-5.5). The reaction was incubated at 45-70° C. for an appropriate time (25 minutes to overnight depending on the enzyme concentration) while shaking. Glucose production was determined using an enzymatic glucose assay (K-GLUC, Megazyme, Ireland). 10 μl of each reaction was added to 190 μl GOPOD reagent (supplied as part of the K-GLUC assay kit). The reaction was incubated at 45° C. for 20 minutes and the absorbance of the solution was measured at 510 nm. The GOPOD reagent contains 50 mM Potassium phosphate buffer pH7.4, 0.011M p-hydroxybenzoic acid, 0.008% w/v sodium azide, glucose oxidase (>12,000 U/L), peroxidase (>650 U/L) and 80 mg/L 4-aminoantipyrine. The glucose oxidase enzyme in the reagent reacts with any glucose present in the sample and produces hydrogen peroxide which then reacts with the 4-aminoantipyrine to produce a quinoneimine dye in quantities proportionate with the amount of glucose present and can be measured spectrophotometrically at 510 nm. Detectable β-glucosidase activity was observed under high throughput screening conditions (i.e., pH 7, 50° C.).
Plasmid libraries containing variant CelA genes were transformed into B. megaterium and plated on Luria-Bertani (LB) agar plates containing 3 μg/mL tetracycline with a DM3 regeneration media overlay (400 mM sodium succinate dibasic, pH 7.3, 0.5% casamino acids, 0.5% yeast extract, 0.4% K2HPO4, 0.2% KH2PO4, 20 mM MgCl2, 0.5% glucose and 0.2% BSA). After incubation for at least 18 hours at 30° C., colonies were picked using a Q-bot® robotic colony picker (Genetix USA, Inc., Beaverton, Oreg.) into shallow, 96-well well microtiter plates containing 180 μL, LB and 10 μg/mL tetracycline. Cells were grown overnight at 37° C. with shaking at 200 rpm and 85% humidity. 10 μL of this culture was then transferred into 96-well microtiter plates (deep well) containing 390 μL A5-glucose-xylose medium and 10 μg/mL tetracycline as described in example 2. The plates were then incubated at 37° C. with shaking at 250 rpm and 85% humidity overnight (˜18-24 hours). The deep plates were centrifuged at 4000 rpm for 15 minutes and the clear media supernatant containing the secreted CelA enzyme was used for the high throughput pNPG or cellobiose assay of Example 5.
The CelA libraries were screened in high throughput using the cellobiose assay of Example 5 (Substrate: cellobiose; pH: 5-7; temperature: 45-72° C.; time: 2-24 hrs) for the identification of improved variants.
In shallow, 96-well microtiter plates 25 μL of media supernatant was added to 75 μL of […] cellobiose in 150 mM sodium acetate buffer pH 5-5.5 or 150 mM sodium phosphate buffer pH6-7. After sealing with aluminum/polypropylene laminate heat seal tape (Velocity 11 (Menlo Park, Calif.), Cat#06643-001), the plates were shaken at 45-65° C. for up to 24 hrs. The plates were centrifuged for 5 minutes at 4000 rpm. In shallow well clear microtiter plates, 10 μL of the reaction mixture was added to 190 μL of GOPOD reagent (as in example 5B) per well. The solutions were incubated at 45° C. for 1 hour and absorbance was measured at 510 nm for the identification of active CelA variants.
Improved CelA variants were identified from the high throughput screening of various CelA variant libraries as described in Example 7, using the cellobiose assay of Example 5 using 3.3 g/l cellobiose at temperatures from 50°-55° C. at a pH in the range of 5.3-6.5. Tables 2A, 2B, 2C, and 2D and Table 3 depict the improvement in activities of CelA variants encompassed by the invention. The assay conditions are indicated in each table. […]

Molecule | Fold improvement over wildtype CelA
B1 | + (+ = 1.1 to 2.0 fold improvement over native CelA (SEQ ID NO: 4))
B2 | + (+ = 1.1 to 2.0 fold improvement over native CelA (SEQ ID NO: 4))
B3 | + (+ = 1.1 to 2.0 fold improvement over native CelA (SEQ ID NO: 4))
B4 | ++ (++ = 2.1 to 2.6 fold improvement over native CelA (SEQ ID NO: 4))
B5 | + (+ = 1.1 to 2.0 fold improvement over native CelA (SEQ ID NO: 4))
B6 | + (+ = 1.1 to 2.0 fold improvement over native CelA (SEQ ID NO: 4))
B7 | + (+ = 1.1 to 2.0 fold improvement over native CelA (SEQ ID NO: 4))
B8 | + (+ = 1.1 to 2.0 fold improvement over native CelA (SEQ ID NO: 4))
B9 | + (+ = 1.1 to 2.0 fold improvement over native CelA (SEQ ID NO: 4))
B10 | + (+ = 1.1 to 2.0 fold improvement over native CelA (SEQ ID NO: 4))
B11 | + (+ = 1.1 to 2.0 fold improvement over native CelA (SEQ ID NO: 4))
B12 | ++ (++ = 2.1 to 2.6 fold improvement over native CelA (SEQ ID NO: 4))
B13 | + (+ = 1.1 to 2.0 fold improvement over native CelA (SEQ ID NO: 4))
B14 | + (+ = 1.1 to 2.0 fold improvement over native CelA (SEQ ID NO: 4))
B15 | + (+ = 1.1 to 2.0 fold improvement over native CelA (SEQ ID NO: 4))
B16 | + (+ = 1.1 to 2.0 fold improvement over native CelA (SEQ ID NO: 4))
B17 | + (+ = 1.1 to 2.0 fold improvement over native CelA (SEQ ID NO: 4))
B18 | + (+ = 1.1 to 2.0 fold improvement over native CelA (SEQ ID NO: 4))
B19 | + (+ = 1.1 to 2.0 fold improvement over native CelA (SEQ ID NO: 4))
B20 | + (+ = 1.1 to 2.0 fold improvement over native CelA (SEQ ID NO: 4))
B21 | + (+ = 1.1 to 2.0 fold improvement over native CelA (SEQ ID NO: 4))
B22 | + (+ = 1.1 to 2.0 fold improvement over native CelA (SEQ ID NO: 4))
B23 | + (+ = 1.1 to 2.0 fold improvement over native CelA (SEQ ID NO: 4))
B24 | + (+ = 1.1 to 2.0 fold improvement over native CelA (SEQ ID NO: 4))
B25 | + (+ = 1.1 to 2.0 fold improvement over native CelA (SEQ ID NO: 4))
B26 | + (+ = 1.1 to 2.0 fold improvement over native CelA (SEQ ID NO: 4))
B27 | + (+ = 1.1 to 2.0 fold improvement over native CelA (SEQ ID NO: 4))
B28 | ++ (++ = 2.1 to 2.6 fold improvement over native CelA (SEQ ID NO: 4))
